These results are taken from US6861257B1, “Methods for isolation of osteoclast precursor cells and inducing their differentiation into osteoclasts” (Shionogi & Co., Ltd., priority 1998, dated 2005).

Test [1] deals with preosteoclasts. Briefly: Induction of differentiation of preosteoclasts (from joint fluid of rheumatoid arthritis patients) into osteoclasts in the absence of accessory cells. The following applies: cytokine in place of human T-STIM in the medium, 37° C., 48-96 hours, no accessory cells. It counts as cell-based. As to the method: The obtained cellular fraction was cultured in DMEM medium (Gibco BRL, #12430-21 or equivalent) supplemented with 10% (v/v) of fetal calf serum (FCS) in 5-7% CO2-containing air at 37° C. for several weeks. […]
Human T-STIM contains a variety of cytokines. In order to identify the cytokine which stimulates differentiation of preosteoclasts into osteoclasts, the differentiation was examined by modifycation the contents of Medium A described as previously in Example 1(3).
The following 16 kinds of medium (B-R) were prepared by using the cytokines shown below, alone or a mixture thereof, instead of human T-STIM contained in Medium A (Example 1(3)). […] Recombinant baculovirus containing the sequence was prepared to infect insect cells, then the recombinant eotaxin-3 protein was purified from the culture supernatant.)
The preosteoclasts obtained by Example 1(2) were cultured in the Medium […] described above at 37° C. for 48-96 hours.

Test [2] has as its system preosteoclasts. As to conditions: differentiation requiring the presence of accessory cells; cited from earlier work.

“Also recorded” adds a separate entry of the source.

For the molecule “GM-CSF: recombinant human GM-CSF (R & D Systems)”, the “ability for inducing the differentiation of preosteoclasts” value (“ability for inducing the differentiation” below) in the test on preosteoclasts [1] was “have an ability for inducing the differentiation of preosteoclasts”.

On to “eotaxin: recombinant human eotaxin (R & D Systems)”, for which, in the test with preosteoclasts [1], the “ability for inducing the differentiation” value was “have an ability for inducing the differentiation of preosteoclasts”.

As for “IL-6: recombinant human IL-6 (R & D Systems)”, the “ability for inducing the differentiation” value with preosteoclasts [1] is listed as “do not have an ability for inducing the differentiation of preosteoclasts; also recorded: does not effect to the differentiation”. Moreover, the “induction of the differentiation of preosteoclasts into osteoclasts” value with preosteoclasts [2] is on record as “induce the differentiation of preosteoclasts into osteoclasts”.

B1: M-CSF: recombinant human M-CSF (R & D Systems) (protein, UniProt P09603 33-554, looked up)
Macrophage colony-stimulating …: EEVSEYCSHMIGSGHLQSLQRLIDSQMETSCQITFEFVDQEQLKDPVCYLKKAFLLVQDIMEDTMRFRDNTPNAIAIVQLQELSLRLKSCFTKDYEEHDKACVRTFYETPLQLLEKVKNVFNETKNLLDKDWNIFSKNCNNSFAECSSQDVVTKPDCNCLYPKAIPSSDPASVSPHQPLAPSMAPVAGLTWEDSEGTEGSSLLPGEQPLHTVDPGSAKQRPPRSTCQSFEPPETPVVKDSTIGGSPQPRPSVGAFNPGMEDILDSAMGTNWVPEEASGEASEIPVPQGTELSPSRPGGGSMQTEPARPSNFLSASSPLPASAKGQQPADVTGTALPRVGPVRPTGQDWNHTPQKTDHPSALLRDPPEPGSPRISSLRPQGLSNPSTLSAQPQLSRSHSSGSVLPLGELEGRRSTRDRRSPAEPEGGPASEGAARPLPRFNSVPLTDTGHERQSEGSFSPQLQESVFHLLVPSVILVLLAVGGLLFYRWRRRSHQEPQRADSPLEQPEGSPLTQDDRQVELPV
For the molecule B1, in the test with preosteoclasts [1], the “ability for inducing the differentiation” value was “do not have an ability for inducing the differentiation of preosteoclasts; also recorded: does not effect to the differentiation”. In addition, the “induction of the differentiation of preosteoclasts into osteoclasts” value in the test on preosteoclasts [2] is “induce the differentiation of preosteoclasts into osteoclasts”.

B2: eotaxin-3: human CC type chemokine, amino acid sequence SEQ ID No.:2; recombinant protein from baculovirus-infected insect cells (protein, listed as Homo sapiens)
chain: MMGLSLASAVLLASLLSLHLGTATRGSDISKTCCFQYSHKPLPWTWVRSYEFTSNSCSQRAVIFTTKRGKKVCTHPRKKWVQKYISLLKTPKQL
Turning to B2, the “ability for inducing the differentiation” value in the test with preosteoclasts [1] is “have an ability for inducing the differentiation of preosteoclasts”.

B3: IL-7: recombinant human IL-7 (Genzyme) (protein, UniProt P13232 26-177, looked up)
Interleukin-7: DCDIEGKDGKQYESVLMVSIDQLLDSMKEIGSNCLNNEFNFFKRHICDANKEGMFLFRAARKLRQFLKMNSTGDFDLHLLKVSEGTTILLNCTGQVKGRKPAALGEAQPTKSLEENKSLKEQKKLNDLCFLKRLLQEIKTCWNKILMGTKEH
On to B3, for which, in the test on preosteoclasts [1], the “ability for inducing the differentiation” value is “have an ability for inducing the differentiation of preosteoclasts”.

B4: IL-4: recombinant human IL-4 (Genzyme) (protein, UniProt P05112 25-153, looked up)
Interleukin-4: HKCDITLQEIIKTLNSLTEQKTLCTELTVTDIFAASKNTTEKETFCRAATVLRQFYSHHEKDTRCLGATAQQFHRHKQLIRFLKRLDRNLWGLAGLNSCPVKEANQSTLENFLERLKTIMREKYSKCSS
As to B4, the “ability for inducing the differentiation” value in the test on preosteoclasts [1] was “do not have an ability for inducing the differentiation of preosteoclasts”.

B5: IL-11: recombinant human IL-11 (R & D Systems) (protein, UniProt P20809 22-199, looked up)
Interleukin-11: PGPPPGPPRVSPDPRAELDSTVLLTRSLLADTRQLAAQLRDKFPADGDHNLDSLPTLAMSAGALGALQLPGVLTRLRADLLSYLRHVQWLRRAGGSSLKTLEPELGTLQARLDRLLRRLQLLMSRLALPQPPPDPPAPPLAPPSSAWGGIRAAHAILGGLHLTLDWAVRGLLLLKTRL
In the case of B5, the “ability for inducing the differentiation” value in the test with preosteoclasts [1] is “do not have an ability for inducing the differentiation of preosteoclasts; also recorded: does not effect to the differentiation”. In the test with preosteoclasts [2], the “induction of the differentiation of preosteoclasts into osteoclasts” value is listed as “induce the differentiation of preosteoclasts into osteoclasts”.

B6: eotaxin-2: recombinant human eotaxin-2 (R & D Systems) (protein, UniProt O00175 27-119, looked up)
C-C motif chemokine 24: VVIPSPCCMFFVSKRIPENRVVSYQLSSRSTCLKAGVIFTTKKGQQFCGDPKQEWVQRYMKNLDAKQKKASPRARAVAVKGPVQRYPGNQTTC
Turning to B6, the “ability for inducing the differentiation” value in the test on preosteoclasts [1] is listed as “have an ability for inducing the differentiation of preosteoclasts”.
